Results reported in paper PMC10397247.
Blank lines part the entries; values can stand above or below the binder they belong to.

Assays:
APC542-AA = target: T1, APC542-AA; experiment: two-hybrid library CCmax;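 also: natural log of median RNA to DNA barcode read ratio; higher means stronger binding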
T1 chain: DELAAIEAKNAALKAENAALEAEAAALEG

APC5531-AA = target: T2, APC5531-AA; experiment: two-hybrid library CCmax; conditions: mean of both orientations;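 also: natural log of median RNA to DNA barcode read ratio; higher means stronger binding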
T2 chain: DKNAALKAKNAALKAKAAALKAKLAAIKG

APC6088-AA = target: T3, APC6088-AA; experiment: two-hybrid library CCmax; conditions: mean of both orientations;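 also: natural log of median RNA to DNA barcode read ratio; higher means stronger binding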
T3 chain: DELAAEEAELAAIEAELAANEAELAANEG

APC7524-AA = target: T4, APC7524-AA; experiment: two-hybrid library CCmax; conditions: mean of both orientations;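 also: natural log of median RNA to DNA barcode read ratio; higher means stronger binding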
T4 chain: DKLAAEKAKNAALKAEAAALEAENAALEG

APC8401-AA = target: T5, APC8401-AA; experiment: two-hybrid library CCmax; conditions: mean of both orientations;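 also: natural log of median RNA to DNA barcode read ratio; higher means stronger binding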
T5 chain: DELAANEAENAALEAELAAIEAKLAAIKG

APC8516-AA = target: T6, APC8516-AA; experiment: two-hybrid library CCmax; conditions: mean of both orientations;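 also: natural log of median RNA to DNA barcode read ratio; higher means stronger binding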
T6 chain: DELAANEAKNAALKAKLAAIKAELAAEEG

APC9141-AA = target: T7, APC9141-AA; experiment: two-hybrid library CCmax; conditions: mean of both orientations
T7 chain: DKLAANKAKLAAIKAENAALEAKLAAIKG

APC9182-AA = target: T8, APC9182-AA; experiment: two-hybrid library CCmax; conditions: mean of both orientations
T8 chain: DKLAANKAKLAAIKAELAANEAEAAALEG

APC9291-AA = target: T9, APC9291-AA; experiment: two-hybrid library CCmax; conditions: mean of both orientations
T9 chain: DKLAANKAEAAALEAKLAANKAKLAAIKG

APC9806-AA = target: T10, APC9806-AA; experiment: two-hybrid library CCmax; conditions: mean of both orientations
T10 chain: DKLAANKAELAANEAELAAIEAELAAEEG

4H780-bN = target: T11, 4H780-bN; experiment: two-hybrid library CCNG1
T11 chain: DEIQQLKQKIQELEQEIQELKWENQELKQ

4H797-bN = target: T12, 4H797-bN; experiment: two-hybrid library CCNG1
T12 chain: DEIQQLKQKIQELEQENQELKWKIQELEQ

4H855-bN = target: T13, 4H855-bN; experiment: two-hybrid library CCNG1
T13 chain: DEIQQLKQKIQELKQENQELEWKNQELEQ

4H918-bN = target: T14, 4H918-bN; experiment: two-hybrid library CCNG1
T14 chain: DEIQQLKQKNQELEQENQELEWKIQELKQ

4H953-bN = target: T15, 4H953-bN; experiment: two-hybrid library CCNG1
T15 chain: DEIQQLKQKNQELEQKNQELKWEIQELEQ

4H968-bN = target: T16, 4H968-bN; experiment: two-hybrid library CCNG1
T16 chain: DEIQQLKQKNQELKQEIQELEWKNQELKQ

4H730-bA = target: T17, 4H730-bA; experiment: two-hybrid library CCNG1
T17 chain: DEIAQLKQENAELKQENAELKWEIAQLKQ

4H796-bA = target: T18, 4H796-bA; experiment: two-hybrid library CCNG1
T18 chain: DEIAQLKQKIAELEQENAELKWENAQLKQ

4H932-bA = target: T19, 4H932-bA; experiment: two-hybrid library CCNG1
T19 chain: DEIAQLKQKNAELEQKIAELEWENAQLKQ

4H949-bA = target: T20, 4H949-bA; experiment: two-hybrid library CCNG1
T20 chain: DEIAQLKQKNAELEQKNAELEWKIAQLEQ

4H754-bN = target: T21, 4H754-bN; experiment: two-hybrid library CCNG1
T21 chain: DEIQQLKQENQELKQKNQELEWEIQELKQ

4H883-bN = target: T22, 4H883-bN; experiment: two-hybrid library CCNG1
T22 chain: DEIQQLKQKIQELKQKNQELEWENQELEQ

4H908-bN = target: T23, 4H908-bN; experiment: two-hybrid library CCNG1
T23 chain: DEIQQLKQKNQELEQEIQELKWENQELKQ

4H967-bN = target: T24, 4H967-bN; experiment: two-hybrid library CCNG1
T24 chain: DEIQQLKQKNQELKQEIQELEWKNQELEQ

4H780-bH = target: T25, 4H780-bH; experiment: two-hybrid library CCNG1
T25 chain: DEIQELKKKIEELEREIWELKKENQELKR

4H797-bH = target: T26, 4H797-bH; experiment: two-hybrid library CCNG1
T26 chain: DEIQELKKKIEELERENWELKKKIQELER

4H855-bH = target: T27, 4H855-bH; experiment: two-hybrid library CCNG1
T27 chain: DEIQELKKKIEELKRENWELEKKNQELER

4H918-bH = target: T28, 4H918-bH; experiment: two-hybrid library CCNG1
T28 chain: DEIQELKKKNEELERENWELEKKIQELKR

4H953-bH = target: T29, 4H953-bH; experiment: two-hybrid library CCNG1
T29 chain: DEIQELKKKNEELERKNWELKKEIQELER

4H968-bH = target: T30, 4H968-bH; experiment: two-hybrid library CCNG1
T30 chain: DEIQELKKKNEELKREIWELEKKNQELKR

4H780-bA = target: T31, 4H780-bA; experiment: two-hybrid library CCNG1
T31 chain: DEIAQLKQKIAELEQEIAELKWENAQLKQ

4H797-bA = target: T32, 4H797-bA; experiment: two-hybrid library CCNG1
T32 chain: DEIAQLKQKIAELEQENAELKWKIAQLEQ

4H855-bA = target: T33, 4H855-bA; experiment: two-hybrid library CCNG1
T33 chain: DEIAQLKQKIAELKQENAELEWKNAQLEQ

4H918-bA = target: T34, 4H918-bA; experiment: two-hybrid library CCNG1
T34 chain: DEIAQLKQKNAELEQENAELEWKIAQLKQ

4H953-bA = target: T35, 4H953-bA; experiment: two-hybrid library CCNG1
T35 chain: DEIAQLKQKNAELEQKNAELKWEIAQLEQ

4H968-bA = target: T36, 4H968-bA; experiment: two-hybrid library CCNG1
T36 chain: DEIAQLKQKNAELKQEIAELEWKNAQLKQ

interaction score (APC542-AA): -1.57
interaction score (APC5531-AA): -1.88
interaction score (APC6088-AA): -2.13
interaction score (APC7524-AA): -2
interaction score (APC8401-AA): -1.89
interaction score (APC8516-AA): -1.5
interaction score (APC9141-AA): -1.64
interaction score (APC9182-AA): -1.84
interaction score (APC9291-AA): -1.54
interaction score (APC9806-AA): -1.91
B1: APC542-AA (peptide)
chain: DELAAIEAKNAALKAENAALEAEAAALEG

interaction score (4H780-bN): 1.99
interaction score (4H797-bN): -0.0265
interaction score (4H855-bN): -0.732
interaction score (4H918-bN): -0.346
interaction score (4H953-bN): -0.748
interaction score (4H968-bN): -2.05
B2: 4H780-bN (peptide)
chain: DEIQQLKQKIQELEQEIQELKWENQELKQ

Further lines, the binder ahead of its results:

B3: 4H730-bA (peptide)
chain: DEIAQLKQENAELKQENAELKWEIAQLKQ
interaction score (4H730-bA): 1.25
interaction score (4H796-bA): -0.666
interaction score (4H932-bA): -0.52
interaction score (4H949-bA): -0.437

B4: 4H754-bN (peptide)
chain: DEIQQLKQENQELKQKNQELEWEIQELKQ
interaction score (4H754-bN): 0.447
interaction score (4H780-bN): 0.164
interaction score (4H797-bN): -1.55
interaction score (4H855-bN): -0.508
interaction score (4H883-bN): -1.38
interaction score (4H908-bN): -1.55
interaction score (4H918-bN): -1.04
interaction score (4H953-bN): -1.42
interaction score (4H967-bN): -0.968
interaction score (4H968-bN): -0.3

B5: 4H780-bH (peptide)
chain: DEIQELKKKIEELEREIWELKKENQELKR
interaction score (4H780-bH): 1.6
interaction score (4H797-bH): -0.654
interaction score (4H855-bH): 0.0924
interaction score (4H918-bH): 0.556
interaction score (4H953-bH): -0.153
interaction score (4H968-bH): -0.28

B6: 4H780-bA (peptide)
chain: DEIAQLKQKIAELEQEIAELKWENAQLKQ
interaction score (4H780-bA): 1.22
interaction score (4H797-bA): -0.749
interaction score (4H855-bA): -0.574
interaction score (4H918-bA): -0.303
interaction score (4H953-bA): -0.243
interaction score (4H968-bA): -1.3
